Molecular target: CD122/CD132 receptor on cells of human PBMCs (human) (UniProt P14784)
Assay: cell-based or functional assay

Chain of CD122/CD132 receptor on cells of human PBMCs (human) (P14784 27-551, chain 1 of 2): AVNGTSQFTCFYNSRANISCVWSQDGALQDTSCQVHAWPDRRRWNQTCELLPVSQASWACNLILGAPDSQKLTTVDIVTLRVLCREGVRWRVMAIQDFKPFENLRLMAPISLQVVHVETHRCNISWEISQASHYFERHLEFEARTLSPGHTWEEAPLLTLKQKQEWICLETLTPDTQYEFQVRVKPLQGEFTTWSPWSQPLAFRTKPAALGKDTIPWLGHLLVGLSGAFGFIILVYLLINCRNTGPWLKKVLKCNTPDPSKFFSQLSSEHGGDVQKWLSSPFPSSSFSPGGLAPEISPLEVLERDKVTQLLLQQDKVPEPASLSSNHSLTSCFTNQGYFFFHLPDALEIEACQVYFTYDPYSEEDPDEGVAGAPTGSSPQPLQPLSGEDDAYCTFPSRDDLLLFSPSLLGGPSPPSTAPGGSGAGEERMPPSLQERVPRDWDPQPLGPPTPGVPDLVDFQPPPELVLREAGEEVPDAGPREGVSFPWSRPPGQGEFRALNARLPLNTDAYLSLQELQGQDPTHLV
Chain of CD122/CD132 receptor on cells of human PBMCs (human) (P31785 23-369, chain 2 of 2, further chain): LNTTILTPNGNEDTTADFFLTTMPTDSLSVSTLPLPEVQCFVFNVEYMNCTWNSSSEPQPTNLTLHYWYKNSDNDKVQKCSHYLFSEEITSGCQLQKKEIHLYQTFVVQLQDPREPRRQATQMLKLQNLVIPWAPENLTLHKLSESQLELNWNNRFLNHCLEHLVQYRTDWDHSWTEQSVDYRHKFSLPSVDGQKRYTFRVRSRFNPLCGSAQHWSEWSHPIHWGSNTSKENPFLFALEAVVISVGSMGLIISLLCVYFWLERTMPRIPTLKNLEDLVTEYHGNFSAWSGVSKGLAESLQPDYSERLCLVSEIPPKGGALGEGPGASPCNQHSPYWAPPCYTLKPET

Substance: C-term N88D: irrelevant antibody with IL-2 N88D fused to its C-terminus (IgG-(IL-2N88D)2 of Peterson et al.)
- pSTAT5 EC50, Treg (human PBMCs): 0.37 nM
- pSTAT5 Max. Signal, Treg (normalised to V69A/Q74P): 0.5
